This note sets out measurements from publication PMC9891502 (PLOS Pathogens, 2023).

This experiment concerns the target gB AD-2S1 peptide (human cytomegalovirus). Description: SPR. The note with it: both partners purified.

By Kd is commonly meant the constant that tells how readily two partners part at equilibrium. A lower Kd goes with a tighter complex. A word on the kon: it is a measure of how fast the partners come together. Low readings indicate slower complex formation, high ones faster complex formation.

B1: I7 (antibody, V domains shown)
VH: QVQLVESGGGVVQPGRSLRLSCAASGFTFSGYNLHWVRQAPGKGLEWVAVISIDGSNKHYADSVKGRFTISRDNSKNTLYLQMNSLRAEDTAVYYCARDGRSVGGFSGILDPWGQGTLVTVSS
VL: not shown
notes: also called intermediate 7
For the molecule B1, the Kd was 4.47 nM and the kon turned out to be 1.46e+08 M⁻¹ s⁻¹.

B2: MAB343 (antibody, V domains shown)
VH: QVQLQESGGGVVQPGRSLRLSCAASGFTFNTYNMHWVRQAPGKGLEWVAVISNDGTYKYSADSVKGRFSISRGNSKNTLYLQMNSLRPDDTAVYYCARDGRSVGGFSGILDPWGQGTLATVSS
VL: EIVMTQSPATLSLSPGDRATLSCRASQSVGSYLAWYQQKPGQAPRLLIYDASDRATGIPARFSGSGSGTDFTLTISSLEPEDFAVYYCQQRSNWPPLTFGGGTKVEIK
In turn, B2 returned a Kd of 1.57 nM and a kon of 1.61e+08 M⁻¹ s⁻¹.

B3: MAB338 (antibody, V domains shown)
VH: QVQLVESGGGVVQPGRSLRLSCSGSGFTFSDYNLHWVRQAPGKGLEWVAVISIDGTNKHHADSVKGRFTISRDNSKNTVNLEMSRLKAEDTAVYYCVRDGRSIGGYSGIFDPWGQGTLVTVSS
VL: EIVLTQSPATLSLSPGERATLSCRASQSVDRYLAWYQQKPGQAPRLLIYDASQRATGIPARFSGSGSGTDFTLAISSLEPEDVAVYYCQQRSNWPPLTFGGGTKIEIK
Regarding B3, the equilibrium dissociation constant (Kd) was determined as 1.99 nM and the kon is 1.36e+08 M⁻¹ s⁻¹.

B4: MAB310 (I3) (antibody, V domains shown)
VH: QVQLVQSGGGVVQPGTSLRLSCAASGFMFNTYNMHWVRQAPGKGLEWVAVISNDGTYKYSADSLKGRFSISRDNSKNTLYLHMNSLRPDDTAVYYCARDGRSVGGFSGILDPWGQGTLVTVSS
VL: EIVLTQSPATLSLSPGDRATLSCRASQTVGRYLAWYQQKPGQAPRLLIYDASDRATGISARFSGSGSGTDFTLTISSLEPEDFAVYYCQQRSNWPPLTFGGGTKVEIK
In turn, B4 yielded a Kd of 3.11 nM and a kon of 1.87e+08 M⁻¹ s⁻¹.

B5: I4 (antibody, V domains shown)
VH: QVQLVESGGGVVQPGRSLRLSCAASGFTFNTYNMHWVRQAPGKGLEWVAVISNDGTYKYSADSVKGRFSISRDNSKNTLYLQMNSLRPDDTAVYYCARDGRSVGGFSGILDPWGQGTLVTVSS
VL: EIVLTQSPATLSLSPGDRATLSCRASQSVGSYLAWYQQKPGQAPRLLIYDASDRATGIPARFSGSGSGTDFTLTISSLEPEDFAVYYCQQRSNWPPLTFGGGTKVEIK
notes: also called intermediate 4
In the case of B5, binding was put at a Kd of 1.85 nM and the kon came out at 1.3e+08 M⁻¹ s⁻¹.

B6: MAB318 (antibody, V domains shown)
VH: QVQLVQSGGGVVQPGTSLRLSCAASGFMFNTYNMHWVRQAPGKGLEWVAVISNDGTYKHFADSLKGRFSISRDDSKNTLYLHMNSLRPDDTAIYYCARDGRSVGGFSGILDPWGQGTLVTVSS
VL: EVVLTQSPATLSLSPGDRATLSCRASQTVGRYLAWYQQKPGQAPRLLIYDASDRATGISARFSGSGSGTDFTLTIGSLEPEDFAVYYCQQRSSWPPLTFGGGTKVEIK
Molecule B6 registered a Kd of 3.68 nM and a kon of 1.33e+08 M⁻¹ s⁻¹.

B7: I1 (antibody, V domains shown)
VH: QVQLVESGGGVVQPGRSLRLSCAASGFTFNTYNMHWVRQAPGKGLEWVAVISNDGTYKYSADSVKGRFSISRDNSKNTLYLQMNSLRPDDTAVYYCARDGRSVGGFSGILDPWGQGTLVTVSS
VL: EIVMTQSPATLSLSPGDRATLSCRASQSVGSYLAWYQQKPGQAPRLLIYDASDRATGIPARFSGSGSGTDFTLTISSLEPEDFAVYYCQQRSNWPPLTFGGGTKVEIK
notes: also called intermediate 1
With B7, binding was put at a Kd of 1.59 nM and the on-rate constant (kon) was determined as 1.43e+08 M⁻¹ s⁻¹.

B8: MAB309 (I2) (antibody, V domains shown)
VH: QVQLVQSGGGVVQPGTSLRLSCAASGFMFNTYNMHWVRQAPGKGLEWVAVISNDGTYKHFADSLKGRFSISRDDSKNTLYLHMNSLRPDDTAIYYCARDGRSVGGFSGILDPWGQGTLVTVSS
VL: EIVLTQSPATLSLSPGDRATLSCRASQTVGRYLAWYQQKPGQAPRLLIYDASDRATGISARFSGSGSGTDFTLTISSLEPEDFAVYYCQQRSSWPPLTFGGGTKVEIK
B8 showed a Kd of 3.77 nM and a kon of 1.24e+08 M⁻¹ s⁻¹.
